Among the data in paper PMC7997285 are fold Nanoluc activity over control reactions values, retold here.

Where only a bound is given, the exact number is not on record here.

The target in this assay is human IRAK1 fused to the N-terminal Nanoluc fragment N67 (human) (UniProt P51617). Kind of assay: split reporter (BiFC, NanoBiT).
In turn, “RRV capsid protein fused to the C-terminal Nanoluc fragment C67 (natural protein)” returned a fold Nanoluc activity over control reactions greater than 10 fold.
Substance “SINV capsid protein fused to the C-terminal Nanoluc fragment C67 (from UniProt P03316) (natural protein)” displayed a fold Nanoluc activity over control reactions of 12 fold.
The figure for “CHIKV capsid protein fused to the C-terminal Nanoluc fragment C67 (from UniProt Q8JUX5) (natural protein)” is greater than 10 fold.
